Paper PMC9239988 (Nature Communications, 2022)

Columns and labels:
[1] = target: TBEV prMe-linker-sE single-chain protein (tick-borne encephalitis virus strain Neudoerfl) (UniProt P14336); test: crystal structure; uncleaved single-chain prMe-linker-sE; PDB 7QRF
[2] = target: Tick-borne encephalitis virus (TBEV) soluble envelope protein E (sE) (Tick-borne encephalitis virus, strain Neudoerfl); test: SEC-MALS
[3] = target: Tick-borne encephalitis virus (TBEV) soluble envelope protein E (sE) (Tick-borne encephalitis virus, strain Neudoerfl); test: crystal structure
[4] = target: TBEV prMe-linker-sE single-chain construct (Tick-borne encephalitis virus, strain Neudoerfl); test: crystal structure; prMe-linker-sE single chain, crystallisation pH 3.5, PDB 7QRF

Substance: TBEV prMe-linker-sE single-chain protein (from UniProt P14336 2-401)
- stoichiometry N [1]: 2

Substance: Tick-borne encephalitis virus (TBEV) soluble envelope protein E (sE) (domain or fragment)
- stoichiometry N [2]: 2
- stoichiometry N [3]: 2

Substance: TBEV prMe-linker-sE single-chain construct
- stoichiometry N [4]: 2
